Measured values from article PMC10163345 (Journal of Cell Science, 2023).
Where no end group is shown, it is not given here.

Target: T1, constitutively active truncated His-tagged WT calcineurin (6×His–CNAαWT:CNB) (human | , UniProt Q08209 1-392; P63098 1-170)
T1 construct: human CNAα (PPP3CA), truncated at residue 392, WT; calcineurin B subunit (PPP3R1, amino acids 1–170), expressed in tandem with CNAα; p11 vector (PSI:Biology-Materials Repository); held on His-tag Dynabeads in the pull-down; also called CNWT; source: E. coli BL21 (DE3), purified (Ni-NTA agarose, dialysed)
T1 sequence (Q08209 1-392, chain 1 of 2): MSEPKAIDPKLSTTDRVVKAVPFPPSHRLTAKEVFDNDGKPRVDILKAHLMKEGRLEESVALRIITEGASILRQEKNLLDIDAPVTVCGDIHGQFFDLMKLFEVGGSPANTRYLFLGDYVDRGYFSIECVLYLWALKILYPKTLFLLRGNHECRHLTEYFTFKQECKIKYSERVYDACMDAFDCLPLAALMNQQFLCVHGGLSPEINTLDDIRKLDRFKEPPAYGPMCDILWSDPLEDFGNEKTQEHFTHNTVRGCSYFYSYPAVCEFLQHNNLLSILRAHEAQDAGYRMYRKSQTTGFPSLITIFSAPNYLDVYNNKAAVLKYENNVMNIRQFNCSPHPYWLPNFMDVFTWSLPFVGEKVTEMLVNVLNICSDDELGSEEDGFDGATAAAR
T1 sequence (P63098 whole entry, chain 2 of 2, the tested form may be a part): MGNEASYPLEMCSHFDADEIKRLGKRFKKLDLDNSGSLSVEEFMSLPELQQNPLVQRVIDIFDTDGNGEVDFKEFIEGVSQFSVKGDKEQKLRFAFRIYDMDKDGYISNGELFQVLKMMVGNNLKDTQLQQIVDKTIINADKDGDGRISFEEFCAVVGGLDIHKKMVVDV
Assay: pull-down; 1–2 μg 6×His-tagged CN bound to His-Tag Dynabeads; 7–10 μg purified GST-tagged peptide added, 2 h at 4°C; 50 mM Tris-HCl pH 7.5, 150 mM NaCl, 0.1% Tween 20, 1 mM β-mercaptoethanol, 15 mM imidazole, 0.5 mg/ml BSA; immunoblot
Details: both partners purified

B1: GST-tagged POC5 PxIxIT peptide (POC5 PDVRIS) (peptide)
chain: KGELVPDVRISTIHDI
modifications: also: GST-tagged
notes: 16mer of human POC5 with the PxIxIT motif PDVRIS (residues 35–40 of Q8NA72-3) in the centre; pGEX-4T-3 vector; also called WT POC5 peptide; source: E. coli BL21 (DE3), purified (Glutathione Sepharose 4B, dialysed)
  binding result: binds
